Tested on: patients with locally advanced or metastatic urothelial cancer
Test: Same phase 2 study: safety (adverse events, NCI CTCAE v4.03)
Format: in vivo, human
Excerpt: Safety assessments will be based on the information collected through the safety surveillance process and will include the data from recorded adverse events (AEs) including SAEs, recording of concomitant medication, physical examination findings, cardiac monitoring, and laboratory tests.
The assessment of safety during the course of this study will consist of the surveillance and recording of AEs including SAEs, recording of concomitant medication, and measurements of protocol-specified physical examination findings, cardiac monitoring, and laboratory tests.
AE severity should be graded using the National Cancer Institute's Common Terminology Criteria for Adverse Events (NCI CTCAE), Version 4.03. These criteria are provided in the study manual.
An overview of AEs will provide a tabulation of the incidence of all AEs, treatment-emergent AEs, treatment-related AEs, Grade 3 and higher AEs. SAEs, treatment-related SAEs, deaths, and AEs leading to study treatment discontinuation. Adverse events will be defined as treatment emergent if they are newly occurring or worsened following study treatment.
AEs will be classified by system organ class and preferred tem using the Medical Dictionary for Regulatory Activities (MedDRA) and graded using NCI CTCAE, Version 4.03.
The incidence of AEs will be summarized by system organ class, preferred term, severity and relationship to study drug. In the event of multiple occurrences of the same AE in one patient, the AE will be counted once as the occurrence for the maximum grade. AEs leading to premature discontinuation of study drug will be summarized and listed in the same manner.

[1] = Total (N = 214), count (percent)
[2] = treatment-related TEAEs of interest
[3] = treatment-related TEAEs of interest, as of last follow-up
[4] = treatment-related TEAEs of interest, enfortumab vedotin 1.25 mg/kg, patients with locally advanced or metastatic urothelial cancer
[5] = treatment-related TEAEs of interest, most occurred in Cycle 1

For “enfortumab vedotin: Nectin-4 directed ADC: fully human anti-nectin-4 IgG1 kappa antibody (AGS-22C3) conjugated to MMAE via protease-cleavable maleimidocaproyl valine-citrulline linker”, the “Treatment-related AE leading to discontinuation: Multiple organ dysfunction syndrome” value (Total (N = 214)) was 1 (0.5) n (%), the “Treatment-related AE leading to discontinuation: Muscular weakness” value (Total (N = 214)) was 1 (0.5) n (%) and the “Treatment-related AE leading to discontinuation: Overall” value (Total (N = 214)) was 29 (13.6) n (%). For the same substance, the “Treatment-related AE leading to discontinuation: Peripheral motor neuropathy” value (Total (N = 214)) was 1 (0.5) n (%), the “Treatment-related AE leading to discontinuation: Peripheral sensory neuropathy” value (Total (N = 214)) was 12 (5.6) n (%) and the “Treatment-related AE leading to discontinuation: Pneumonitis” value (Total (N = 214)) was 1 (0.5) n (%). For the same substance, the “Treatment-related AE leading to discontinuation: Stevens-Johnson syndrome” value (Total (N = 214)) was 1 (0.5) n (%), the “Treatment-related TEAEs” value (Total (N = 214)) was 203 (94.9) n (%) and the “Treatment-related TEAEs (all grades): Alopecia” value (Total (N = 214)) was 107 (50.0) n (%). For the same substance, the “Treatment-related TEAEs (all grades): Anaemia” value (Total (N = 214)) was 49 (22.9) n (%), the “Treatment-related TEAEs (all grades): Aspartate aminotransferase increased” value (Total (N = 214)) was 24 (11.2) n (%) and the “Treatment-related TEAEs (all grades): Decreased appetite” value (Total (N = 214)) was 84 (39.3) n (%). The “Treatment-related TEAEs (all grades): Diarrhoea” value (Total (N = 214)) was 61 (28.5) n (%), the “Treatment-related TEAEs (all grades): Dry eye” value (Total (N = 214)) was 36 (16.8) n (%) and the “Treatment-related TEAEs (all grades): Dry skin” value (Total (N = 214)) was 46 (21.5) n (%). The “Treatment-related TEAEs (all grades): Dysgeusia” value (Total (N = 214)) was 71 (33.2) n (%), the “Treatment-related TEAEs (all grades): Fatigue” value (Total (N = 214)) was 92 (43.0) n (%) and the “Treatment-related TEAEs (all grades): Lacrimation increased” value (Total (N = 214)) was 30 (14.0) n (%). The “Treatment-related TEAEs (all grades): Nausea” value (Total (N = 214)) was 70 (32.7) n (%), the “Treatment-related TEAEs (all grades): Neutropenia” value (Total (N = 214)) was 24 (11.2) n (%) and the “Treatment-related TEAEs (all grades): Oedema peripheral” value (Total (N = 214)) was 25 (11.7) n (%). The “Treatment-related TEAEs (all grades): Overall” value (Total (N = 214)) was 203 (94.9) n (%), the “Treatment-related TEAEs (all grades): Peripheral sensory neuropathy” value (Total (N = 214)) was 92 (43.0) n (%) and the “Treatment-related TEAEs (all grades): Pruritus” value (Total (N = 214)) was 59 (27.6) n (%). The “Treatment-related TEAEs (all grades): Rash maculo-papular” value (Total (N = 214)) was 55 (25.7) n (%), the “Treatment-related TEAEs (all grades): Vomiting” value (Total (N = 214)) was 26 (12.1) n (%) and the “Treatment-related TEAEs (all grades): Weight decreased” value (Total (N = 214)) was 52 (24.3) n (%). The “Treatment-related TEAEs leading to death” value (Total (N = 214)) was 3 (1.4) n (%), the “Treatment-related TEAEs leading to treatment discontinuation” value (Total (N = 214)) was 29 (13.6) n (%) and the “Treatment-related TEAEs ≥Grade 3: Acute kidney injury” value (Total (N = 214)) was 5 (2.3) n (%). For the same substance, the “Treatment-related TEAEs ≥Grade 3: Amylase increased” value (Total (N = 214)) was 6 (2.8) n (%), the “Treatment-related TEAEs ≥Grade 3: Anaemia” value (Total (N = 214)) was 14 (6.5) n (%) and the “Treatment-related TEAEs ≥Grade 3: Aspartate aminotransferase increased” value (Total (N = 214)) was 6 (2.8) n (%). For the same substance, the “Treatment-related TEAEs ≥Grade 3: Decreased appetite” value (Total (N = 214)) was 6 (2.8) n (%), the “Treatment-related TEAEs ≥Grade 3: Diarrhoea” value (Total (N = 214)) was 8 (3.7) n (%) and the “Treatment-related TEAEs ≥Grade 3: Fatigue” value (Total (N = 214)) was 14 (6.5) n (%). For the same substance, the “Treatment-related TEAEs ≥Grade 3: Febrile neutropenia” value (Total (N = 214)) was 6 (2.8) n (%), the “Treatment-related TEAEs ≥Grade 3: Hyperglycaemia” value (Total (N = 214)) was 10 (4.7) n (%) and the “Treatment-related TEAEs ≥Grade 3: Hyponatraemia” value (Total (N = 214)) was 6 (2.8) n (%). The “Treatment-related TEAEs ≥Grade 3: Lipase increased” value (Total (N = 214)) was 10 (4.7) n (%), the “Treatment-related TEAEs ≥Grade 3: Neutropenia” value (Total (N = 214)) was 18 (8.4) n (%) and the “Treatment-related TEAEs ≥Grade 3: Neutrophil count decreased” value (Total (N = 214)) was 16 (2.8) n (%). For the same substance, the “Treatment-related TEAEs ≥Grade 3: Overall” value (Total (N = 214)) was 119 (55.6) n (%), the “Treatment-related TEAEs ≥Grade 3: Peripheral sensory neuropathy” value (Total (N = 214)) was 5 (2.3) n (%) and the “Treatment-related TEAEs ≥Grade 3: Pruritus” value (Total (N = 214)) was 5 (2.3) n (%). The “Treatment-related TEAEs ≥Grade 3: Rash erythematous” value (Total (N = 214)) was 6 (2.8) n (%), the “Treatment-related TEAEs ≥Grade 3: Rash maculo-papular” value (Total (N = 214)) was 12 (5.6) n (%) and the “Treatment-related grade 3-5 TEAEs” value (Total (N = 214)) was 119 (55.6) n (%). For the same substance, the “Treatment-related serious TEAEs” value (Total (N = 214)) was 39 (18.2) n (%), the “TEAEs leading to death (excluding disease progression): Acute kidney injury” value [1] was 2 (0.9) and the “TEAEs leading to death (excluding disease progression): Acute respiratory failure” value [1] was 1 (0.5). The “TEAEs leading to death (excluding disease progression): Cardiac disorder” value [1] was 1 (0.5), the “TEAEs leading to death (excluding disease progression): Metabolic acidosis” value [1] was 1 (0.5) and the “TEAEs leading to death (excluding disease progression): Multiple organ dysfunction syndrome” value [1] was 1 (0.5). The “TEAEs leading to death (excluding disease progression): Overall” value [1] was 9 (4.2), the “TEAEs leading to death (excluding disease progression): Pneumonia aspiration” value [1] was 1 (0.5) and the “TEAEs leading to death (excluding disease progression): Sepsis” value [1] was 2 (0.9). For the same substance, the “Discontinuation due to treatment-related peripheral neuropathy” value (cohort 1) was 6%, the “Discontinuation rate due to treatment-related AEs” value (cohort 1) was 12% and the “Grade 3 or Grade 4 treatment-related TEAE: anemia” value (cohort 1) was 7%. The “Grade 3 or Grade 4 treatment-related TEAE: fatigue” value (cohort 1) was 6%, the “Grade 3 or Grade 4 treatment-related TEAE: neutropenia” value (cohort 1) was 8% and the “SAE (unrelated and related): cellulitis” value (cohort 1) was 4.8%. The “SAE (unrelated and related): urinary tract infection” value (cohort 1) was 4.8%, the “cases of Stevens-Johnson Syndrome reported” value (cohort 1) was “One” and the “related SAE: febrile neutropenia” value (cohort 1) was 4%. The “subjects with a Grade 3 or Grade 4 treatment-related TEAE” value (cohort 1) was 54%, the “deaths assessed as treatment-related” value (cohort 1, interstitial lung disease) was “one and One” and the “Discontinuation due to treatment-related peripheral neuropathy” value (cohort 2) was 4.5%. The “Discontinuation rate due to treatment-related AEs” value (cohort 2) was 15.7%, the “SAE (unrelated and related): acute kidney injury” value (cohort 2) was 10.1% and the “deaths assessed as treatment-related by investigators” value (cohort 2) was “Four”. The “related SAE: acute kidney injury” value (cohort 2) was 3.4%, the “subjects with a treatment-related TEAE greater than or equal to Grade 3” value (cohort 2) was 55.1% and the “treatment-related TEAE ≥Grade 3: fatigue” value (cohort 2) was 6.7%. For the same substance, the “treatment-related TEAE ≥Grade 3: neutropenia” value (cohort 2) was 9%, the “treatment-related TEAE ≥Grade 3: rash maculo-popular” value (cohort 2) was 7.9% and the “Hyperglycemia, >Grade 3” value [2] was 6%. The “Peripheral Neuropathy, >Grade 3” value [2] was 8%, the “Peripheral Neuropathy, Median Onset” value [2] was 2.6 months and the “Skin Reactions, >Grade 3” value [2] was 17%. The “Hyperglycemia, Resolution/improvement” value [3] was 89%, the “Peripheral Neuropathy, Resolution/improvement” value [3] was 54% and the “Skin Reactions, Resolution/improvement” value [3] was 80%. For the same substance, the “Hyperglycemia, Any grade” value [4] was 10%, the “Peripheral Neuropathy, Any grade” value [4] was 56% and the “Skin Reactions, Any grade” value [4] was 61%. For the same substance, the “Hyperglycemia, Median Onset” value [5] was 0.5ª months and the “Skin Reactions, Median Onset” value [5] was 0.5ª months.
